B1: Protein Vpr (Human immunodeficiency virus type 1 group M subtype B (isolate BRU/LAI)), P05928 (parent)
chain: MEQAPEDQGPQREPHNEWTLELLEELKNEAVRHFPRIWLHGLGQHIYETYGDTWAGVEAIIRILQQLLFIHFRIGCRHSRIGVTQQRRARNGASRS
B2: Protein Vpx (Simian immunodeficiency virus (isolate PBj14/BCL-3)), P19508 (parent)
chain: MSDPRERIPPGNSGEETIGEAFDWLDRTVEEINRAAVNHLPRELIFQVWRRSWEYWHDEMGMSVSYTKYRYLCLIQKAMFMHCKKGCRCLGGEHGAGGWRPGPPPPPPPGLA

The values below come from IntAct's records for PubMed 17314515.

The variants in the first assay derive from B1. As to conditions: with DCAF1, Q9Y4B6-3.
Target sequence in this assay (Q9Y4B6 other isoform, or with tags, fused parts or gaps): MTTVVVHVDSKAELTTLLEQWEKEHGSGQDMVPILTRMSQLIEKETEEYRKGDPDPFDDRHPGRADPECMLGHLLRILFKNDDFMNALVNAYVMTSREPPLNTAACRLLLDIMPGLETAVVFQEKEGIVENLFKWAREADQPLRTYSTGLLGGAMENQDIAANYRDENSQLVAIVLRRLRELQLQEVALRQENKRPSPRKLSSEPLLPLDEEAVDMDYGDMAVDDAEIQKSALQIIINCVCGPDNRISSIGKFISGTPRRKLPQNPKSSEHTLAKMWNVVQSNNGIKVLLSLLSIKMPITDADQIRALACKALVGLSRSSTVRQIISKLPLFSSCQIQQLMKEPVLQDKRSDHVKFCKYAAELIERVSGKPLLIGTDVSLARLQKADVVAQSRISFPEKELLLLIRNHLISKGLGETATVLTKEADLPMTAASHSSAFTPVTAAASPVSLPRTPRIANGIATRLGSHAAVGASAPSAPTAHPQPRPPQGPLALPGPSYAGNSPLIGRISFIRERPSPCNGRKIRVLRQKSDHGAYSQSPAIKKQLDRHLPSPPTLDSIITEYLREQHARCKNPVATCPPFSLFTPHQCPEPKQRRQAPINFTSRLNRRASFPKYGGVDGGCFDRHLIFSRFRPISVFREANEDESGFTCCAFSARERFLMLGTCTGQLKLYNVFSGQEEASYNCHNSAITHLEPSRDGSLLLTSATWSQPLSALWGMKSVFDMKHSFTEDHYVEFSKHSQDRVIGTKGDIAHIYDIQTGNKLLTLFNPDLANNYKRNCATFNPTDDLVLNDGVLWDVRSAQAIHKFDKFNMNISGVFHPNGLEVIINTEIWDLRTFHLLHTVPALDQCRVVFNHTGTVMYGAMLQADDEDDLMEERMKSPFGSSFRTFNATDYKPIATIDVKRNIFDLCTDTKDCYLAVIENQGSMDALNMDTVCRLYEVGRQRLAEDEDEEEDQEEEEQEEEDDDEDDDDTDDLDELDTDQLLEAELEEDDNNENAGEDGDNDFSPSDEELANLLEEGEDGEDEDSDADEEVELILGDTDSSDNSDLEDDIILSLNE
As for MEQAPEDQGPQREPHNEWTLELLEELKNEAVRHFPRIWLHGLGQHIYETYGDTWAGVEAIIRILRQLLFIHFRIGCRHSRIGVTQQRRARNGASRS, the “effect of a mutation on the interaction” value is “disrupting interaction”. With Q65A, the “effect of a mutation on the interaction” value is “disrupting interaction”.

The variants in another assay derive from B2. To be noted: with DCAF1, Q9Y4B6-3.
Target sequence in this assay (Q9Y4B6 other isoform, or with tags, fused parts or gaps): as the sequence (Q9Y4B6 other isoform, or with tags, fused parts or gaps) above
For the variant MSDPRERIPPGNSGEETIGEAFDWLDRTVEEINRAAVNHLPRELIFQVWRRSWEYWHDEMGMSVSYTKYRYLCLIRKAMFMHCKKGCRCLGGEHGAGGWRPGPPPPPPPGLA, the “effect of a mutation on the interaction” value is “disrupting interaction”.
